Values of other authors as cited in patent publication US20170022546.

Target: T1, KZF (Kaiso zinc finger domain, three C2H2 fingers) (UniProt Q86T24)
T1 sequence: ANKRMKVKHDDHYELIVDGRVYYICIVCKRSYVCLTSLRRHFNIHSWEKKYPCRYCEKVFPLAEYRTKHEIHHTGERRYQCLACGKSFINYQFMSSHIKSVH
Details: 5mC; CITED ref 45; 1:1 complex

Question: With “consecutive methylated CpG target (literature)” as the substance, how does the Kd read?
Answer: 210 pM
